We go through 5 molecules from patent US20020037286A1 (published 2002).

For assay [1], the target named is Ena/VASP proteins. Briefly: cell-based or functional assay.
Assay [2] concerns the target Arp2/3 complex (endogenous, Jurkat T-cells). Put plainly: cell-based or functional assay.
Assay [3] concerns the target T1, zyxin (endogenous, Jurkat T-cells) (human, UniProt Q15942 2-572).
T1 sequence (looked up): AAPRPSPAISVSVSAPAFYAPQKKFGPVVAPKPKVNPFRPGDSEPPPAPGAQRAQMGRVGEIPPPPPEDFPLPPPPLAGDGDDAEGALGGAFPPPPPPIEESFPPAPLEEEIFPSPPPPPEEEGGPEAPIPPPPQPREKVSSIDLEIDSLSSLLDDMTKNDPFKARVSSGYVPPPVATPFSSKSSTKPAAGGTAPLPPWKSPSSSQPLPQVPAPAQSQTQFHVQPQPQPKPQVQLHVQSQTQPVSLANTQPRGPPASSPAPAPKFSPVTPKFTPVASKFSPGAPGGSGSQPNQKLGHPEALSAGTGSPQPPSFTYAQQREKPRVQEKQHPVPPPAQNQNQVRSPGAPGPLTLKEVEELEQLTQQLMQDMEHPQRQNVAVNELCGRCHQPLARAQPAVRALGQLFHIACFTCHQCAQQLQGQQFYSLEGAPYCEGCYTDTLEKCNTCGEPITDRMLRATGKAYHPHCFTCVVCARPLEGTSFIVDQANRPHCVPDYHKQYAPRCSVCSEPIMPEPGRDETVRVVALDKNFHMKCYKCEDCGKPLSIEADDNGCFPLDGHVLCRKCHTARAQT
Put plainly: co-immunoprecipitation from Jurkat T-cell lysate with WASP mAb 67B4, blot probed with zyxin mAb.
Procedure: After quick pelleting, stimulated and control cells were resuspended and incubated in DMEM/HEPES containing 15 λg/ml goat anti mouse IgG antibodies at 37° C. for 2 min. Jurkat NP-40 lysates were prepared at 1×10⁸ cells/ml in ice cold NP-40 lysis buffer (1% (v/v) NP-40, 150 mm NaCl, 10 mM Tris-Cl pH 7.8) supplemented with 60 μg/ml chymostatin, 10 g/ml pepstatin, 5 μg/ml leupeptin, 2 μg/ml aprotinin, 2 mM Pefabloc (Roche Diagnostics), 1 mM Na₃VO₄, and 10 mM NaF. […] Immunoprecipitations were carried out according to standard protocols using 0.2 ml of Jurkat NP-40 lysates derived from 2×10^7 cells.
Immunoprecipitates were resolved by SDS-PAGE. As positive control, Jurkat E6-1 lysates were used.

GFP-ActA-Repeats F>A showed a length of the contact zone between Jurkat T-cells and anti CD3-coated beads in assay [1] of 5.16 µm.

In assay [1], GFP-ActA-Repeats registered a length of the contact zone between Jurkat T-cells and anti CD3-coated beads of 3.84 µm.

Take “myc-tagged ScarWA (from UniProt Q92558 443-559)”: the length of the contact zone between the beads and Jurkat T-cells in assay [2] came out at 3.16 µm.

With “myc-tagged ScarW (from UniProt Q92558 443-543)”, the length of the contact zone between the beads and Jurkat T-cells in assay [2] was 5 µm.

B1: WASP (endogenous, Jurkat T-cells) (other, human, UniProt P42768 2-502, looked up)
chain: SGGPMGGRPGGRGAPAVQQNIPSTLLQDHENQRLFEMLGRKCLTLATAVVQLYLALPPGAEHWTKEHCGAVCFVKDNPQKSYFIRLYGLQAGRLLWEQELYSQLVYSTPTPFFHTFAGDDCQAGLNFADEDEAQAFRALVQEKIQKRNQRQSGDRRQLPPPPTPANEERRGGLPPLPLHPGGDQGGPPVGPLSLGLATVDIQNPDITSSRYRGLPAPGPSPADKKRSGKKKISKADIGAPSGFKHVSHVGWDPQNGFDVNNLDPDLRSLFSRAGISEAQLTDAETSKLIYDFIEDQGGLEAVRQEMRRQEPLPPPPPPSRGGNQLPRPPIVGGNKGRSGPLPPVPLGIAPPPPTPRGPPPPGRGGPPPPPPPATGRSGPLPPPPPGAGGPPMPPPPPPPPPPPSSGNGPAPPPLPPALVPAGGLAPGGGRGALLDQIRQGIQLNKTPGAPESSALQPPPQSSEGLVGALMHVMQKRSRAIHSSDEGEDQAGDEDEDDEWDD
With B1, the binding result in assay [3] is given as “no binding”.
